# From the supplement of paper PMC9170038
# System: MS2 coat protein
# Experiment: apparent KD of MS2 coat protein; designed switch direction (-1 OFF switch, 1 ON switch): 1; higher = weaker reporter binding
# Summary of the method: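 Normalised cluster fluorescence was curve-fitted, and each design's median over clusters is its apparent KD. Before this, SNAP-549-labelled MS2 coat protein was titrated from 0.7 or 1.5 nM, doubling to 3 µM, over RNA switches transcribed on Illumina chips by stalled E. coli RNA polymerase. Titrations had no input, 200 uM small-molecule ligand, or an oligonucleotide input, and steps lasted 0.8–1.5 h (lowest) to 10–20 min (highest).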
# [1] = input ligand: microRNA oligo, concentration not stated
# [2] = Eterna round: R95, input ligand: FMN 200 uM
# [3] = Eterna round: R95, input ligand: microRNA oligo, concentration not stated
# [4] = Eterna round: R95, input ligand: none
Sequence,apparent KD of MS2 coat protein (input ligand: FMN 200 uM),apparent KD of MS2 coat protein [1],apparent KD of MS2 coat protein (input ligand: none),apparent KD of MS2 coat protein [2],apparent KD of MS2 coat protein [3],apparent KD of MS2 coat protein [4]
"AGCCGAGACUGAGGAUAUUUUAAUCUACAUGAGGAUCACCCAUGUAACAACACGUGGUAGUGAUAGAAGAAGGCGGCUCGGCGC [Omei SS(NG)2 Cv1] (Eterna round: R96, puzzle: Same State NG 2)",176 nM,162 nM,386 nM,–,–,–
"AGCGUCCACACAGGAUAUCACCUGCACUACAGGUGAGAAGGGUGACCGGUGCGCAAUAACGACAUGAGGAUCACCCAUGUAAAA [Enraquleer] (Eterna round: R96, puzzle: Same State NG 1)",334 nM,93.2 nM,384 nM,–,–,–
"AGCUAGUACCGAGGAUAUACGUACAUGAGGAUCACCCAUGUAUACAUGGUUUAAUGAAACUACAUGUAGAAGGCGGUACUAGCA [Mat - Same State NG 2 - JL mod - D51] (Eterna round: R96, puzzle: Same State NG 2)",23.2 nM,157 nM,348 nM,–,–,–
AGCUAUCGAAAACGAUAGCAAAAGUAUGUACAUGAGGAUCACCCAUGUCAUGUACAAGCUUUUUGCUCGUCUUAAAA [Zipper 23 - 10] (puzzle: Sensor for hsa-mir-208a),–,–,–,664 nM,19.6 nM,638 nM
AGCUAUCGCGUACGAUAGCUGAAGCAUGUACAUGAGGAUCACCCAUGUCAUGUACAAGCUUUUUGCUCGUCUUAUUG [JL-shm-2.26 JL mod] (puzzle: Sensor for hsa-mir-208a),–,–,–,341 nM,14.2 nM,347 nM
"AGCUAUUAAUCAGGAUAUGGUCACAUGAGGAUCACCCAUGUAUAGAUGAUAAAAUGUGGUCAAUACUAGAAGGGAUUGCUAACA [SameState NG2 #63] (Eterna round: R96, puzzle: Same State NG 2)",433 nM,266 nM,386 nM,–,–,–
"AGCUAUUAAUCAGGAUAUGGUCACAUGAGGAUCACCCAUGUAUAGAUGAUUAAAUGUGGUCUAAACUAGAAGGGAUUGCUAACA [SameState NG2 #56] (Eterna round: R96, puzzle: Same State NG 2)",414 nM,523 nM,421 nM,–,–,–
"AGCUUGUGGGUAGGAUAUUUAGGAUAUGCGGAAGACUAAGUCUGUAGGUCACCUAACGCAGAAGGAGAGAAGGACCCUUCAGCA [pwkr ssNG2 2FMN + F9.30] (Eterna round: R96, puzzle: Same State NG 2)",353 nM,21.1 nM,91.3 nM,–,–,–
AGGAAGGAGGCUGAGGAUAUCGUAAGGAGGACAUGAGGAUCACCCAUGUGUAUAGGAUUGGAGGACGAGAAGGCAGAGGAGUGGG [JR_SS2_Sub049] (puzzle: Same State 2),–,–,–,49.8 nM,25 nM,29.4 nM
"AGGGAGGAUGCAGGAUAUAUAAGACAUGAGGAUCACCCAUGUACCUCGUGGAGAAGAAAGGAGAGAUAGAAGGGUAGAGAGGAA [Default title] (Eterna round: R96, puzzle: Same State NG 2)",314 nM,288 nM,255 nM,–,–,–
"AGUAAGAGUCAAGGAUAUGCUACCGUUUCGGUAGCAGAAGGUGAUCACAUGAGGAUCACCCAUGUAUAAAUGCGUGAGCGUGCU [JL SSNG1 3.63] (Eterna round: R96, puzzle: Same State NG 1)",679 nM,28.2 nM,59 nM,–,–,–
"AGUAGUGUAACAUGAGGAUCACCCAUGUAAGUAGAUGUAACCUAGGAUAUGGAUGAUAUGUUAGUCCAGAAGGAGGAUUGAAUA [JR_SSNG3_Sub037] (Eterna round: R96, puzzle: Same State NG 3)",15.5 nM,20.6 nM,44.4 nM,–,–,–
